Substitutions are numbered along the chain they refer to.
T1: huMS4A4A-ECL2 free-peptide (human)
T1 construct: synthetic, free or BSA-conjugated, coated on the plate; also called human MS4A4A ECL2 peptide; huMS4A4A-ELC2 free-peptide
T1 peptide: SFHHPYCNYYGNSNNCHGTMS

B1: anti-MS4A4A antibody 4A-450 NSLF huIgG1 (antibody, V domains shown)
VH: QVQLVQSGSELKKPGASVKVSCKASGYAFTSYGLSWVRQAPGQGLEWMGWINTYSGVPTYAQGFTGRFVFSLDTSVSTAYLQISSLKAEDTAVYYCARTMADYWGQGTLVTVSS
VL: DVVMTQSPLSLPVTLGQPASISCKSSRSLLYSAGKTYLSWFQQRPGQSPRRLIYLVSKLDSGVPDRFSGSGSGTDFTLKISRVEAEDVGVYYCWQGIDFHQTFGGGTKVEIKR
B2: anti-MS4A4A antibody 4A-202 (antibody, V domains shown)
VH: QVQLQQSGAELARPGASVKLSCKASGYTFTNYWMQWVKQRPGQGLEWIGATHPGHGDTRYTQKFKGKATLSADKSSSTAYMQLSNLASEDSAVYYCAREEVYYGFRSYWYFDVWGRGTLVTVSS
VL: not shown
notes: murine parental; tested as mouse IgG or as human IgG1 Fc chimera (hFc), told under assay
B3: anti-MS4A4A antibody 4A-332 (antibody, human IgG1, V domains shown)
VH: B1 VH with A28I, T99S, M100L, A101V
VL: DVVMTQSPLSLPVTLGQPASISCKSSQSLLYSDGKTYLSWFQQRPGQSPRRLIYLVSKLDSGVPDRFSGSGSGTDFTLKISRVEAEDVGVYYCWQGIDFHQTFGGGTKVEIK
notes: humanized 4A-21; human IgG1/kappa
B4: anti-MS4A4A antibody 4A-376 (antibody, V domains shown)
VH: B1 VH with A28I, T99S
VL: B3 VL with Q27R
notes: full human IgG
B5: anti-MS4A4A antibody 4A-351 (antibody, V domains shown)
VH: B1 VH with A28I, M100L
VL: B3 VL with Q27R
notes: full human IgG
B6: anti-MS4A4A antibody 4A-350 (antibody, V domains shown)
VH: B1 VH with A28I, M100L
VL: B3 VL
notes: full human IgG
B7: anti-MS4A4A antibody 4A-369 (antibody, V domains shown)
VH: B1 VH with A28T, V37I, A101V
VL: B3 VL with D98R
notes: full human IgG
B8: anti-MS4A4A antibody 4A-360 (antibody, V domains shown)
VH: B1 VH with A28I, M100L
VL: B3 VL with S26G, K58R
notes: full human IgG
B9: anti-MS4A4A antibody 4A-362 (antibody, V domains shown)
VH: B1 VH with A28I, M100L
VL: B3 VL with K58R
notes: full human IgG
B10: anti-MS4A4A antibody 4A-373 (antibody, V domains shown)
VH: B1 VH with A28I, M100L, A101V
VL: B3 VL with Q27R
notes: full human IgG
B11: anti-MS4A4A antibody 4A-358 (antibody, V domains shown)
VH: B1 VH with A28I, M100L
VL: B3 VL with D98R
notes: full human IgG
B12: anti-MS4A4A antibody 4A-214 (antibody, V domains shown)
VH: EVKLEESGGGLVQPGRSMKLSCVASGFTFSNYWMNWVRQSPEKGLEWVAEIRLKSNNYATHYAESVKGRFTISRDDSKSSVYLQMNNLRAEDTGIYYCSSMIIVDYWGQGTTVTVSS
VL: DIVLTQSPASLTVSLGQRATISCRASQSVSSSTYSYLHWYQQRPGQPPKLLIKYASNLESGVPARFSGSGSGTVFTLNIHPVEEEDTATYYCQHSWEIPLTFGAGTKLEMK
notes: murine; mFc = murine Fc; also called 4A-214.mFc
B13: anti-MS4A4A antibody 4A-25 (antibody, V domains shown)
VH: QVTLKESGPGILQPSQTLSLTCSFSGFSLRTSDMGVGWVRQPSGEGLEWLADIWWDDNKYYNPSLKSRLTISKDTSSNQVFLKITSVDTADTATYYCARRANYGNLFDYWGQGTAVTVSS
VL: DIVMTQSLKFMSTSVGDRVSITCKASQNVRSAVAWYQQKPGQSPKVLIYWASNRHTGVPDRFTGSGSGTDFTLTISNVQSEDLADYFCLQHWNYLTFGSGTKLEIK
notes: murine parental; mFc = murine Fc; also called 4A-25.mFc
B14: anti-MS4A4A antibody 4A-18 (antibody, V domains shown)
VH: QVQLQQPGTELVKPGASVKLSCKASGYTFTSYWIHWVKQRPGQGLEWIGNINPTNGGTNYNERFKSKATLTVDKSSSTAYMQLSSLTSEDSAVYYCARAYYYGSSLFAYWGQGTLVTVSS
VL: DIVMTQSQKFMSTTVGDRVSITCKASQNVGTAVAWSQQKPGQSPKLLIYSASYRHTGVPDRFTGSGSGTDFTLTITNMQSEDLADYFCQQYSTYPWTFGGGTKLEIK
notes: murine parental; tested as mouse IgG1 or as human IgG1 Fc chimera (hFc), told under assay; also called 4A-18.hFc

Target: T2, human MS4A4A (human, UniProt Q96JQ5 1-239)
Assay: cell-based or functional assay

Binder	EC50 of the increase of mTREM2, primary human macrophages [µg/mL]
B1	0.039

Target: T2, human MS4A4A
Assay: cell-based or functional assay
Remark: another data set of the same source

Binder	EC50 of the increase of sTREM2, primary human macrophages [µg/mL]
B1	0.069

Target: T3, recombinant MS4A4A soluble polypeptide JS1
T3 construct: also called JS1.His; loop grafted antigen
Assay: ELISA, 1 ug/ml antibody
Protocol: (§1) Anti-MS4A4A antibodies of the present disclosure were tested for their ability to bind to the different recombinant MS4A4A soluble polypeptides, as described in Example 2, as follows. Nucleic acid encoding the VH and VL domains of humanized anti-MS4A4A antibodies of the present disclosure were cloned into pcDNA3.4 vector which contains either the human IgG1 heavy chain constant domain or human kappa constant domain. The humanized anti-MS4A4A antibodies were expressed in Expi293 cells and were purified by Mab select antibody purification resin (GE Healthcare Life Science, cat#17519902) following the manufacture's protocol. ELISA was performed to measure binding of anti-MS4A4A antibodies of the present disclosure the recombinant MS4A4A soluble polypeptides. 1 μg/ml biotinylated antigens were preincubated on the streptavidin-coated ELISA plates (Thermo Scientific, cat#PI15120) for 1 hour. Plates were washed 3 times, followed by the addition of antibodies (1 μg/ml, 0.33 μg/ml, and 0.11 μg/ml antibodies. Plates were incubated at room temperature with shaking for 1 hr, washed 3 times, then 1/2500 dilution of HRP conjugates goat anti human kappa antibodies added (SigmaAldrich cat#. A7164-1ML).

Binder	OD450
B2	0.141
B3	1.91

Target: T4, recombinant MS4A4A soluble polypeptide JS5
T4 construct: also called JS5.His
Assay: ELISA, 1 ug/ml antibody
Protocol: as §1

Binder	ELISA OD
B2	0.188
B4	1.04
B5	0.953
B3	0.997

Target: T4, recombinant MS4A4A soluble polypeptide …
Assay: ELISA, 0.4 ug/ml antibody

Binder	OD450
B6	0.939
B7	0.852
B8	0.797
B4	0.977
B9	0.908
B5	0.99
B10	0.907
B11	0.901
B3	0.821

Target: T1, huMS4A4A-ECL2 free-peptide
Assay: peptide ELISA, murine antibody
Protocol: Coated plates were then blocked with ELISA diluent (PBS+0.5% BSA+0.05% Tween20) for 1-hour, washed 3×300 μL in PBST (PBS+0.05% Tween20, Thermo Cat#28352), and then the antibodies were added to the plate ([…]). After 30 mins incubation (room temperature, with shaking), the plates were washed 3×300 μL in PBST. […] After a final set of washes (3×300 μL in PBST), 50 μL of TMB substrate (BioFx Cat#TMBW-1000-01) was added and the reaction was then quenched after 5-10 mins with 50 μL of stop solution (BioFx Cat#BSTP-1000-01). The quenched reaction wells were detected for absorbance at […] with a BioTek Synergy Microplate Reader using GENS 2.04 software.

Binder	binding result
B12	binds
B2	binds
B13	binds

Target: T4, recombinant MS4A4A soluble polypeptide …
Assay: ELISA, 0.11 ug/ml antibody
Protocol: as §1

Binder	ELISA OD
B2	0.079
B4	0.83
B5	0.816
B3	0.677

Target: T4, recombinant MS4A4A soluble polypeptide …
Assay: ELISA, 0.33 ug/ml antibody
Protocol: as §1

Binder	ELISA OD
B2	0.111
B4	1.03
B5	0.898
B3	0.851

Target: T2, human MS4A4A
Assay: FACS, U937-huMS4A4A, 5 ug/ml
Protocol: (§2) Anti-MS4A4A antibodies tested were either mouse IgGs purified from hybridoma supernatant or human IgG1 Fc chimeras produced recombinantly in Expi293 cells. Affinity binding to cells was determined as follows. Briefly, cells were harvested, washed, and labeled with Aqua Live/Dead for viability discrimination. After a wash with PBS, 2×10\hat{ }4 cells were aliquoted per well in 96-well U-bottom plates and incubated with 50 μL of purified anti-MS4A4A antibody at various concentrations (3× dilutions starting at 10 μg/mL) in FACS buffer (PBS+2% FBS+1 mM EDTA). After this primary incubation, the supernatant was removed via centrifugation, washed 2× with 150 μL of ice-cold FACS buffer, and incubated with the appropriate secondary antibody on ice for 15 minutes. Following the secondary antibody incubation, the cells were again washed 2× with ice-cold FACS buffer and resuspended in a final volume of 200 μL of FACS buffer. Flow cytometry analysis was performed on a FACSCanto system (BD Biosciences). Binding data was expressed as Median Fluorescent Intensity (MFI).
(§3) These experiments were performed using anti-MS4A4A antibodies at a concentration of 5 μg/ml and were assayed for cell binding by flow cytometry.

Binder	MFI
B2	216
B3	324
B14	382
B13	648

Target: T2, human MS4A4A
Assay: FACS, U937-huMS4A4A, 5 ug/ml
Remark: another data set of the same source
Protocol: as §2, §3

Binder	MFI
B2	31700
B6	11600
B7	10100
B8	10300
B4	16700
B9	10000
B5	12200
B10	11900
B11	12100
B3	8820

Target: T3, recombinant MS4A4A soluble polypeptide …
Assay: ELISA, biotin-antigen on streptavidin plate
Protocol: as §1

Binder	ELISA OD
B12	1.74
B2	1.16
B14	0.146
B13	1.38

Target: T5, negative control polypeptide JS4
T5 construct: negative control for JS1; also called JS4.His
Assay: ELISA, biotin-antigen on streptavidin plate
Protocol: as §1

Binder	ELISA OD
B12	0.11
B2	0.111
B14	0.098
B13	0.091

Target: T4, recombinant MS4A4A soluble polypeptide …
Assay: ELISA, biotin-antigen on streptavidin plate
Protocol: as §1

Binder	ELISA OD
B12	1.62
B2	1.22
B14	0.099
B13	1.12

Target: T6, recombinant MS4A4A soluble polypeptide JS6
T6 construct: also called JS6.His
Assay: ELISA, biotin-antigen on streptavidin plate
Protocol: as §1

Binder	ELISA OD
B12	1.71
B2	1.23
B14	0.105
B13	1.26

Target: T7, negative control polypeptide JS10
T7 construct: negative control for JS5 and JS6; also called JS10.His
Assay: ELISA, biotin-antigen on streptavidin plate
Protocol: as §1

Binder	ELISA OD
B12	0.086
B2	0.084
B14	0.092
B13	0.063

Reference: patent publication US20210079074A1 (Alector, published 2021)
